Reference: paper PMC10656236 (The Journal of Biological Chemistry, 2023)

Target: cohesin-NIPBL^c subcomplex containing SMC1, SMC3, RAD21 and NIPBL^c (no SA1) (human, UniProt Q14683;Q9UQE7;O60216;Q6KC79)
Assay: reconstitution by mixing, AFM imaging in air

Chain of cohesin-NIPBL^c subcomplex containing SMC1, SMC3, RAD21 and NIPBL^c (no SA1) (Q14683 whole entry, chain 1 of 4): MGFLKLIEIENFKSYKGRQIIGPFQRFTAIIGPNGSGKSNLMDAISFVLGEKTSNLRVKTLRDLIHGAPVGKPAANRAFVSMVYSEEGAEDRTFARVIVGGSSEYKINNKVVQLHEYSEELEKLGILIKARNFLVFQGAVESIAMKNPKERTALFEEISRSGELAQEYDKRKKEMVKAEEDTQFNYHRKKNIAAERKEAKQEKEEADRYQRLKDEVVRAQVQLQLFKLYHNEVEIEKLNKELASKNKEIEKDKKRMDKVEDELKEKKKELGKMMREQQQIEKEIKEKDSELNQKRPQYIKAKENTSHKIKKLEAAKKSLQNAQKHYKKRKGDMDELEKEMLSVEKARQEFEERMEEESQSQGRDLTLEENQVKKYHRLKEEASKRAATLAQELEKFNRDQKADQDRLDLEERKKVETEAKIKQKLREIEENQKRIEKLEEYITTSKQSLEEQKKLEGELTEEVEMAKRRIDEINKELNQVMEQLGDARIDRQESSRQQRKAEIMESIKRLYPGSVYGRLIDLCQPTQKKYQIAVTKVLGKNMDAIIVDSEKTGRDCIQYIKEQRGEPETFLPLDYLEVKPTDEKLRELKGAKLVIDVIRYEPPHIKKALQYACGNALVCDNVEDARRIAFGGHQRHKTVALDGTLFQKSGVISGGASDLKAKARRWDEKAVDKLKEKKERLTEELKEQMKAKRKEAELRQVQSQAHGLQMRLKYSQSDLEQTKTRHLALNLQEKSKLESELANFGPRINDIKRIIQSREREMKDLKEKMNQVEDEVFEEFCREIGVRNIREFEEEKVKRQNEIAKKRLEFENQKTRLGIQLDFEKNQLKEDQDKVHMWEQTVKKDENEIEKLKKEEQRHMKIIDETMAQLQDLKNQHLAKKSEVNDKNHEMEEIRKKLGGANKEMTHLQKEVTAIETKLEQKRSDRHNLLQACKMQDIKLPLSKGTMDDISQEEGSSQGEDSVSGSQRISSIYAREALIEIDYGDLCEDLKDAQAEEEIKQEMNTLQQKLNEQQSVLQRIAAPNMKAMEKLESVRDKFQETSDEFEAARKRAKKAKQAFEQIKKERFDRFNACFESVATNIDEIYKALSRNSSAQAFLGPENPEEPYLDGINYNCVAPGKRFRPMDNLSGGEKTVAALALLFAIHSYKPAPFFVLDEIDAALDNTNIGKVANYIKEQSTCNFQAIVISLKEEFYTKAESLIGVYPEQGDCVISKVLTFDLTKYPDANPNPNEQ
Chain of cohesin-NIPBL^c subcomplex containing SMC1, SMC3, RAD21 and NIPBL^c (no SA1) (Q9UQE7 whole entry, chain 2 of 4): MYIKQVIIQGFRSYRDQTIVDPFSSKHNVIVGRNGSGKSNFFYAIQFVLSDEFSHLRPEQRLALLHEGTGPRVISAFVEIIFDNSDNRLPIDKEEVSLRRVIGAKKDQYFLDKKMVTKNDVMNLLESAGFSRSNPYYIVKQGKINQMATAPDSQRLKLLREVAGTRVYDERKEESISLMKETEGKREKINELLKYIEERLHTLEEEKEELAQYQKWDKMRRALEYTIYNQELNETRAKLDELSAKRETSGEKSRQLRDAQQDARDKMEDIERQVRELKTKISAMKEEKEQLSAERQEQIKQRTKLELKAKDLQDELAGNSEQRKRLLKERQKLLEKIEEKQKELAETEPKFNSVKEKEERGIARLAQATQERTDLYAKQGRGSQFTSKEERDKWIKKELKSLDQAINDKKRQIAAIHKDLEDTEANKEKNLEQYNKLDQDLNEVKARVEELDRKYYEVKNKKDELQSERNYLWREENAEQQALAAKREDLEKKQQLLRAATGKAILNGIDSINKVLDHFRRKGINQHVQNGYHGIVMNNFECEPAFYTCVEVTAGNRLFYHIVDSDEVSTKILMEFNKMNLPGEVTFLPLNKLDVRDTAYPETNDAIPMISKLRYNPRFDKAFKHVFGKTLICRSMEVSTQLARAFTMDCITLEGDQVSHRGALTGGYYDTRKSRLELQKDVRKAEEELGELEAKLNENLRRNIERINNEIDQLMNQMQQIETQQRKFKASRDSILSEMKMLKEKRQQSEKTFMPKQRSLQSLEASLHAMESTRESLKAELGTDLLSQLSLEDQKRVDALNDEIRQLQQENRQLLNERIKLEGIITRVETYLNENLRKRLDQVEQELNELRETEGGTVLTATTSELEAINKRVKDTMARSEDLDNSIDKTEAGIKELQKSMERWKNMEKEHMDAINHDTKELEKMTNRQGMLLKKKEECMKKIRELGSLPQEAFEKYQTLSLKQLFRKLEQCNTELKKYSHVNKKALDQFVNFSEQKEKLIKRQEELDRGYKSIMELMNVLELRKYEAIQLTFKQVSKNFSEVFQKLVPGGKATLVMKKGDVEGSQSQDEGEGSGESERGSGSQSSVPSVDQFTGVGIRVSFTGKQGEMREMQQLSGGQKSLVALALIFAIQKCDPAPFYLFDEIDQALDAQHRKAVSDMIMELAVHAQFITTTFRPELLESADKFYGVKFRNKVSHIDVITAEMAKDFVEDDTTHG
Chain of cohesin-NIPBL^c subcomplex containing SMC1, SMC3, RAD21 and NIPBL^c (no SA1) (O60216 whole entry, chain 3 of 4): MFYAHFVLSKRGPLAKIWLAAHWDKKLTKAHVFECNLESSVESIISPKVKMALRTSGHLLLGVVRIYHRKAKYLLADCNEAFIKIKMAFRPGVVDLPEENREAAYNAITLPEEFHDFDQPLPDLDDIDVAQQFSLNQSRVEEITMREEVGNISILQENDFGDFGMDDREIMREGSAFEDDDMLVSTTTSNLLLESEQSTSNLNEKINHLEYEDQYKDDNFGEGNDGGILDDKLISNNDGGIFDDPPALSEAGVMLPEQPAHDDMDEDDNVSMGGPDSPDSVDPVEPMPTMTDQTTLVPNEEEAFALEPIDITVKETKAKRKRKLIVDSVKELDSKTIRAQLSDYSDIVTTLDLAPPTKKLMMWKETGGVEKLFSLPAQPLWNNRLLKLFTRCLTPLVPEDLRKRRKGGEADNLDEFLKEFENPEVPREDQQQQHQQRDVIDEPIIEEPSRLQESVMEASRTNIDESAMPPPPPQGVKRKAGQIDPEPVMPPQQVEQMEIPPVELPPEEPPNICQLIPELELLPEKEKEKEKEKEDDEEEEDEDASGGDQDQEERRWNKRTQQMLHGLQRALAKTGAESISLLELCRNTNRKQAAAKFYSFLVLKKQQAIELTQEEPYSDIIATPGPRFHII
Chain of cohesin-NIPBL^c subcomplex containing SMC1, SMC3, RAD21 and NIPBL^c (no SA1) (Q6KC79 1163-2804, chain 4 of 4): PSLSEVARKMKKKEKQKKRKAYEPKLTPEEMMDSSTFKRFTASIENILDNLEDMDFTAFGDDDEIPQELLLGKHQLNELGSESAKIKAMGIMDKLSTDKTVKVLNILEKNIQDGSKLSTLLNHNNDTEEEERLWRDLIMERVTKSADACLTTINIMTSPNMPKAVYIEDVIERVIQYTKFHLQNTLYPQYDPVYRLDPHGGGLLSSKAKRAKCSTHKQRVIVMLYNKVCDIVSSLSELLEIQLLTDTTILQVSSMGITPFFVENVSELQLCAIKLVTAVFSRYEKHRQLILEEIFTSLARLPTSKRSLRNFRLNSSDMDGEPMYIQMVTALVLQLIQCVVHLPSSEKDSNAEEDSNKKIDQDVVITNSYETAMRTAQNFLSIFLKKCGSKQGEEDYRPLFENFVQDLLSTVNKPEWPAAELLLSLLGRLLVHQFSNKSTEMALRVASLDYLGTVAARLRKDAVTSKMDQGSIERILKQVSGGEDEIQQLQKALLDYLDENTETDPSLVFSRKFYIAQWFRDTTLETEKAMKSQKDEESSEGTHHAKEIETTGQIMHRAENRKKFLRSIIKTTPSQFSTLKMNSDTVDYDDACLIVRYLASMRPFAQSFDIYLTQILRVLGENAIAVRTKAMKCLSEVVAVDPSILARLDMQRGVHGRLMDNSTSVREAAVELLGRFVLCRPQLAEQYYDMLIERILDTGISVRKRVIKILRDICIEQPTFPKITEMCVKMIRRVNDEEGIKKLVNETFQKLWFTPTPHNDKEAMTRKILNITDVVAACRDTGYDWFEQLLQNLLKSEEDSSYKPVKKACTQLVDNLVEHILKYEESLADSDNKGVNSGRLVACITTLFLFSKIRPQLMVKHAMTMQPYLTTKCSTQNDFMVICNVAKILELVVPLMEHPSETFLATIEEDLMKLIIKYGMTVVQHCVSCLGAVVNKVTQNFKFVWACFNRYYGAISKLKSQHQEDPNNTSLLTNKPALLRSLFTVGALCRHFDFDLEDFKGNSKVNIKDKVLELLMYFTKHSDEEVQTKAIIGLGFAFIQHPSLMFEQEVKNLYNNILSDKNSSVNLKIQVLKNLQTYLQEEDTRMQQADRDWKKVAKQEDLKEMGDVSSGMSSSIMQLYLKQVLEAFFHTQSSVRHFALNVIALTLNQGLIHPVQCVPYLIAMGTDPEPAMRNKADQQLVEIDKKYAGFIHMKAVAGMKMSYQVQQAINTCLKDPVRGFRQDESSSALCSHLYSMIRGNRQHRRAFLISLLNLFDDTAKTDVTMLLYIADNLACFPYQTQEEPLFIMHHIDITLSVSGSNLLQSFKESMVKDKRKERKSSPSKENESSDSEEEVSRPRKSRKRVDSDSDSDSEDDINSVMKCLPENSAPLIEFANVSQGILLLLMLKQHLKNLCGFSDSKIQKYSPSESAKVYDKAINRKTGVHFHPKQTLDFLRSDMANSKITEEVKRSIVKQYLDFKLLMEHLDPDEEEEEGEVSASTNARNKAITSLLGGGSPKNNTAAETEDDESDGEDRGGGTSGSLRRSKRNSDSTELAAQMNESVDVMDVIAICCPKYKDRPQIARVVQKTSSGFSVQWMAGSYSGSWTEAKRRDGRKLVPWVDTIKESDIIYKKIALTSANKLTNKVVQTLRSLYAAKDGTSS

binding result: binds
B1: SA1dc (SA1 1-1054 AAs, without its C terminus) (domain or fragment)
chain: MITSELPVLQDSTNETTAHSDAGSELEETEVKGKRKRGRPGRPPSTNKKPRKSPGEKSRIEAGIRGAGRGRANGHPQQNGEGEPVTLFEVVKLGKSAMQSVVDDWIESYKQDRDIALLDLINFFIQCSGCRGTVRIEMFRNMQNAEIIRKMTEEFDEDSGDYPLTMPGPQWKKFRSNFCEFIGVLIRQCQYSIIYDEYMMDTVISLLTGLSDSQVRAFRHTSTLAAMKLMTALVNVALNLSIHQDNTQRQYEAERNKMIGKRANERLELLLQKRKELQENQDEIENMMNSIFKGIFVHRYRDAIAEIRAICIEEIGVWMKMYSDAFLNDSYLKYVGWTLHDRQGEVRLKCLKALQSLYTNRELFPKLELFTNRFKDRIVSMTLDKEYDVAVEAIRLVTLILHGSEEALSNEDCENVYHLVYSAHRPVAVAAGEFLHKKLFSRHDPQAEEALAKRRGRNSPNGNLIRMLVLFFLESELHEHAAYLVDSLWESSQELLKDWECMTELLLEEPVQGEEAMSDRQESALIELMVCTIRQAAEAHPPVGRGTGKRVLTAKERKTQIDDRNKLTEHFIITLPMLLSKYSADAEKVANLLQIPQYFDLEIYSTGRMEKHLDALLKQIKFVVEKHVESDVLEACSKTYSILCSEEYTIQNRVDIARSQLIDEFVDRFNHSVEDLLQEGEEADDDDIYNVLSTLKRLTSFHNAHDLTKWDLFGNCYRLLKTGIEHGAMPEQIVVQALQCSHYSILWQLVKITDGSPSKEDLLVLRKTVKSFLAVCQQCLSNVNTPVKEQAFMLLCDLLMIFSHQLMTGGREGLQPLVFNPDTGLQSELLSFVMDHVFIDQDEENQSMEGDEEDEANKIEALHKRRNLLAAFSKLIIYDIVDMHAAADIFKHYMKYYNDYGDIIKETLSKTRQIDKIQCAKTLILSLQQLFNELVQEQGPNLDRTSAHVSGIKELARRFALTFGLDQIKTREAVATLHKDGIEFAFKYQNQKGQEYPPPNLAFLEVLSEFSSKLLRQDKKTVHSYLEKFLTEQMMERREDVWLPLISYRNSLVT
